Assay: soluble on expression in E. coli; label from the status in PepcDB or PDB records
With “MGSDKIHHHHHHMSYSEKMLAALSNGQIDTAKKHFAWALRKDDDQTLYSLAEELYGLGFLKQAERTYKKLLAKYPDEDDLRTSLADIAIDEDDTDLALDYLQQVKPDSPAYVQALLVEADLYQTQELFEVSEQKLKEAYQLAPDEPVVEFALAEFYFLIRNYGQATRFYLDLIKQGQLEISKVNLVERLGVAYAESGRFEQAVGYLEQIKPAKLTPDSQFELGFTYLQLNEPQKAVDIFDKLREQDNQYASLYPYLAQAQEQLHQLDKALLTLQEGLAVDQYNEQLYLQTARLALKLDDQELAEKYLREGLSIDPDNLTTVLELSNLLVQRERYQDNIDLLDQYLQSNEFDPQFYWNLAISNDRLDHFQAAKDNYEAAYPFFEHNKDFLKPAIYFFREAGMADSAVAALRNYLTIEPDDGEMVAMLEDYEDQGY” the “soluble on expression in E. coli” value was “not soluble”.
In the case of “MSLNEAGIVLLPKSRQLPALSMIDQNGAAVALDGLKDQWTLMFFGYTFCPDICPTTLAQIKQIRSELPTAAVERMRVVLVSVDPNRDTPQQLKEYLSYFDPQYIGLTAPVADIQKLANSVSIPFIPADTSKPNYFVDHSGNLALIGPDGTQRGFIRAPLNNQKLVKQLPRLLERDEGHHHHHH”, the “soluble on expression in E. coli” value is reported as “soluble”.
In the case of “MGSDKIHHHHHHMFAQVHYPESLSGEELDEYLFKGWFRNGQRIFTTNFLNFDQKIYSAVWLRIHLQSIKSIHALDKLAKRNSRFKITIQPASITPEKEALFEQYKTGVDFTASQSLHTLLFGDSTVDIYNTLELLIHDGNKLIGVGYFDTGKDCAAGITSFYDHAYKKNSLGKYIIMQKIKYCIDQQYSYFYPGYFVPNYPAFDYKLSIGTETLEYLSLSKNTWVSIQAFVTNEDPFQVMLKKLKEFQSVCANYGIEQQIYQYSFFEANIIPSLRGLHLFDFPVFVYLFSEQEDVVNPMVVFDVVNQCYHLIECRSIWKADESIQEEGFYSSHLLKMEKHICSALTATEMSTIIMRSIEESSTFR”, the “soluble on expression in E. coli” value is reported as “not soluble”.
For “MSLAPFTTNPRRFDPYKNFKFRVKWDGRYVAGISKVGALKRSTEVIEHREGGDPSTGRKSPGRTKYDAISMERGVTHDLDFEQWANKVWNFGAGLGSEVSLADFRKDLIIDVFNEAGQKVMSYQVFRCWVSEYQALPDLDANANAIAIQSMKLENEGWLRDVAVAEPAEPSFTIPAEGHHHHHH”, the “soluble on expression in E. coli” value was “soluble”.
For “MSLSPPGVRLFYDPRGHHAGAINELCWGLEEQGVPCQTITYDGGGDAAALGALAARSSPLRVGIGLSASGEIALTHAQLPADAPLATGHVTDSDDQLRTLGANAGQLVKVLPLSERN”, the “soluble on expression in E. coli” value was “soluble”.
For “MNVLRPTLLTLACLLASPGFADDLPSLGDASSAIVSPQQEYQLGRAWLALLRSQVSQLNDPQLKDYVETSVYKLVETSQVNDRRLEFILINSPQLNAFAAPGGIIGVNGGLFLNAQTEGEYASVLAHELAHLSQRHFARGVEAQQRMQVPMMAALLAGIVIAAAGAGDAGIATIAGTQAAAIQEQRRFSRQNEQEADRIGILNLEKAGYDPRSMPTMFERLMRQYRFDAKPPEFLLTHPVTESRIADTRNRAEQARQGGTEDSLRYQLIRARVQLTYEESPGLAAKRFRAQLDENPKNDIARYGLAIAQIKGSQWNEARENLKPLLAKSPNDVTYNLAQIELDMANSRLPDAQTRVERMLNLYPGNYPLNQIRVDLLLKQNRPADAEKALEGLLKSRPDDPDVWYLVAETRGLSGNIIGLHQARAEYFALVGDYRQAIQQLDFAKRRAGSNFPLSSRIDARQREMMDQEQMVKDMMRLEHHHHHH”, the “soluble on expression in E. coli” value was “soluble”.
With “MGFADFFKNFKINKLRTAPSKEEQPSHWVKCPKCYALMYHKEVFSKYSVCLKCHYHFRMKAAERIEFLCDVGSFEEFDKHLRPNDPLNFVDKESYKQRIKKYEKRTNRPSSVISGEAKINRMPLQIVVFDFSFMGGSLGSVEGEKIVRAINRAVAKREALLIVSASGGARMQESTYSLMQMAKTSAALNRLSEAKLPFISLLSDPTYGGVSASFAFLGDLIIAEPGAMIGFAGPRVIKQTIGADLPEGFQTAEFLLEHGLIDMIVHRKDLKKTLSDLIAMMTHKTSKIFLEHHHHHH” the “soluble on expression in E. coli” value was “soluble”.
For “MLKHIISAYNFSRDELEDIFALTDKYSKNLNDTRKILSGKTISIAFFEPSTRTYLSFQKAIINLGGDVIGFSGEESTSVAKGENLADTIRMLNNYSDGIVMRHKYDGASRFASEISDIPVINAGDGKHEHPTQAVIDIYTINKHFNTIDGLVFALLGDLKYARTVNSLLRILTRFRPKLVYLISPQLLRARKEILDELNYPVKEVENPFEVINEVDVLYVTRIQKERFVDEMEYEKIKGSYIVSLDLANKMKKDSIILHPLPRVNEIDRKVDKTTKAKYFEQASYGVPVRMSILTKIYGE”, the “soluble on expression in E. coli” value was “soluble”.
For “MAHHHHHHMSDVSIYALRGTSALYEVLGVSRNATQREIRQGYYRLAVLYHPDKNPEGSDIFKEVCFAHGILSDPEQRALYDSGTLRAELESRARACDPSMDPGVELSPEDLRVFVDRVRQTQEANRQVQSTFELRREEEMKRRAEFDAKNPSFKAEYEQARHLRQHGCRGSTSAAHARASATADLSKTVPPKVRTSAEVLAELQREEEERLYGNPGIGSVDSSSSKRAESDGLSTKHHMMSHYRATHREASGAESLSNSYSGGSTAATVRRRQLETTRLPFVRAHCETPQYSETISATVQAYANYDYLTFVEGGSMDHGELEGAIMADALGNYDRHH”, the “soluble on expression in E. coli” value was “not soluble”.
With “VGDFTYSISANLSDFTSKMGNLNGTQFLGNQVKMEGSEYNEWYGYVSDGLFLTQEDVDKSPKLNNSVKVGDIKYKDISGPDGVPDGVISPEYDRVLLGGSLPHYMFGLTFNAAYKGWDFGLTLQGVGSQKSQISAAMIEGLRDNWLNFPTILDGNYWSPKNTDEQNATAKYPRLTRTNRDANFCMSDYWLYNGRYIRLKNLSVGYTLPKAWTTKACMNTVRLYVSGSDLFTISNAPKGWDPEVSTEGYPITTSLIFGVSINF” the “soluble on expression in E. coli” value was “not soluble”.
With “MSRAEFIRFLQVLEEDLPFRALFQEADPEEILKLADQHGFIFSDEIKGRFLNRWAGVYFCPFANDVGRLCPKMVPEGFSTLLHYSQTTCTKEDKVERFDFRAGGYYEGVKAVTG” the “soluble on expression in E. coli” value was “not soluble”.
In the case of “MEDYLVKALCYKGSIRAYAISATETVSEAQRRHDTWSSSTAALGRTLIGALLLGATLKGDDKLTVKVQGNGPAGAIIVDSNGRGETKGYIKNPHVSLKLNATGKIDVRGAVGNEGIFTVIKDLGLKETFSGQTPIVSGEIGEDFTYFMAVSEQVPSAIGLGVLVDTDESVKAAGGFMIQVMPGADESTIDFIEQRLAEVPPISQLLENGETPEQVLYRLLGEDEVEILEKMPVQFKCDCSKEKFATALIAVGIDELNAMIDEDHGAEAVCQFCNNKYHYSEEELIELRDEAIRNTKQK”, the “soluble on expression in E. coli” value is reported as “not soluble”.
In the case of “MGSDKIHHHHHHMNPGWRVVDLIDFDGKVSYQRGQLAITSDSGELRATLPLAQIAVVLIGNKLIISGAVLVKLSEYDIAVLVCDWRRVPVAGSFSWNEHTRIAARQRAQASLSLPRQKSAWAQIIKAKILGQARTAAQLGFDATDLKNLARAVRSGDVDNREAMAAKRYWEIISAEDDFRRLPGLAATGWNGALDYAYTVLRGHGMRAICSAGLVGTLGVFHHGRGNQFALVDDLIEPFRPAIDYAVFSIVSNSQELDKETKRQLVAAVEEPFNSAGQSIPTVFTAFAQQYGRYVEGDVEKLVPPIWEGPFDAEER”, the “soluble on expression in E. coli” value is reported as “not soluble”.
For “MSLHDKQELSSKSNLNNQKGYLDNEGANSNYESKKQSILSELNQLLKQTTNSLKEAKNTTDNLNASNEANKVVEAVINAVNLISSAADQVKSATKNMHDLAQMAEIDLEKIKNSSDKAIFASNLAKEAYSLTKAAEQNMQKLYKEQQKISESESESDYSDSAEIKQAKEAVEIAWKATVEAKDKLIDVENTVKETLDKIKTETTNNTKLADIKEAAELVLQIAKNAKEIVQEVVALLNTEGHHHHHH”, the “soluble on expression in E. coli” value was “soluble”.
For “MAHHHHHHMTADARTDDGGLRRAYTRSMPAVLRPLWLLEESMRDVQVQWEEIIEGVMVEDVSFSSVRAAVLHVERLASQLKAIKQELMPRLSHFSQKEEDSEQPFLRYCSCAAKPTVNGDNSICDLAQGEQTQAARLAARVWVWGVCVGTIMNDLELLSTSLSFAASTCLLEKFAEEVRLTEASTFFLGKDEGVASPLSDSDLLLACQLLYHLFTGDDAAAEMTCHRVLSLIDDCEERDDGKECRGCILSRLVRIAECVAAEDYGALQVLMKVDFFTGVDTLCSLPPLIIFFTQMMLDTVVHRQLVQGCFQNVWRPVINVDRPARDESPSVPSEAMMNSFCSSSRLSFTTKRRLMTCCAVFRESLPPRVPWPIPEDLMDRCFRMGL”, the “soluble on expression in E. coli” value was “not soluble”.
For “SLFKTKWFAREARSHAITDEELCRAILETEQGKADALGGGVFKKRLHQNRERAIILAKGVSNWFYTFLYAKQDMSNINSQELAGFREIAKHYAFLTKAQLTAMINTKELTEICYDCKN”, the “soluble on expression in E. coli” value was “not soluble”.
For “MLESMTGYGSAERSEKGMKVLVELRSVNNRFAEIGVKLPRQLLSWELEVRELIRASFQRGKISAFVQLQLEEAEALPVTVNPSKVRGYKALLETVRREAEIEAPVTLDHVLRFSEIFEPDHTILEHPDEIWPIAQSALIEAIGNLKEMRRKEGEELAIDFLSRIDEIERTLKEIKEIAAGNLETIRKRLASKISAIAGCDVEYSKDRLEMEIVMAAERLDITEECIRFSSHNKFFIEELNNSSSGSGRKLNFLLQEQLREANTIASKSQNADISQKVVHIKEELEKVREQLQNIE”, the “soluble on expression in E. coli” value was “soluble”.
For “MPELEVKGKKLRLDEDGFLQDWEEWDEEVAEALAKDTRFSPQPIELTEEHWKIIRYLRDYFIKYGVAPPVRMLVKHCKKEVRPDCNLQYIYKLFPQGPAKDACRIAGLPKPTGCV”, the “soluble on expression in E. coli” value was “soluble”.
With “STGVPATDLQQSIMKNVQPIELYFDNELVTDCSALGVYDNSYLVPLHLFEFDFDTIVLGGRHYKKAECEKVEFELEVNGDMVSSDACLLRVPSGPKVRNIVHLFTNEIELKKMTQVTGIMNSPHQARTVFFGSFLTVRKSILTSDGTVMPNVLSYAAQTSRGYCGAAIVAGSPARIIGIHSAGTGSVAFCSLVSKDALERTLPQKQGNVSRLDDDVRVSVPRRSKLVKSLAYPIFKPDYGPAPLSQFDKRLSDGVKLDEVVFAKHTGDKEISAQDQKWLLRAAHVYAQKVFSRIGFDNQALTEKEAICGIPGLDKMEQDTAPGLPYAQQNKRRKDICDFEEGRLKGAAKFQKDRFMAGDYSDLIYQSFLKDEIRPLEKVRAGKTRLIDVPPMPHVVVGRQLLGRFVAKFHEANGFDIGSAIGCDPDVDWTRFGLELERFRYVYACDYSRFDANHAADAMRVVLNYFFSEDHGFDPGVPAFIESLIDSVHAYEEKRYNIYGGLPSGCSCTSILNTILNNVYILAAMMKAYENFEPDDIQVICYGDDCLIASDFEIDFQQLVPVFSSFGQVITTADKTDFFKLTTLSEVTFLKRAFVPDGAFYKPVMDVKTLEAILSFVRPGTQAEKLLSVAQLAGHCEPEQYERLFEPFVGMYFVPTWRDLRLQWLMKLGC” the “soluble on expression in E. coli” value was “soluble”.
With “MSLQGLWIYPEDTEVLGVACKSLLKALTPRYQKVALFSPISGGCESLEECESLNPLEFHSAISKQKALELASTAQEELLFETILKRYDELQSTHDFVINLGCAPKFFLNAPLDLNTILAKHLNASVVAVAQTSLEYLKAMHSHILKKEAPFAVGLFAGETLEKPHFLSMSLCKQQCELEADLIESVLQIKSEIITPLAFQRGLEKKAKKQIKKVVLPESEKMKGFEGHHHHHH” the “soluble on expression in E. coli” value was “not soluble”.
With “MAHHHHHHMPPPPPAPPPPPPPPPPPKATEGNSSSTVGGAASALFAEIRQGGDNITSRLRHVTDDQKAYKQNIQHGAVDFSDLDAKKAEAEAKRQQKQKQPETTAAEEPVTRLEGDKRWVVKHHKGTPSEPCKVTLEDVNMRHAVHIHGCDNTFVEVKGKVNTVSVVSCNKAQVILESVVSALEVLKSDSVDVTVRRFVPTAMVEKSTSVNLFLMDVEEAPNTEIVTACSSAVNVNFPTVEDPTDILERPLPEQFVSRIVRDNRGKYKIETKPNEVA” the “soluble on expression in E. coli” value was “soluble”.

Reference: the DeepSol protein solubility set
